Measurements taken from patent publication US20210324359A1, “USE OF GRAM-NEGATIVE LYSIN-ANTIMICROBIAL PEPTIDE (AMP) POLYPEPTIDE CONSTRUCTS IN TREATING ENDOCARDITIS” (priority 2020, published 2021).

B1: GN76: lysin obtained from Acinetobacter phage vB_AbaP_CEB1 (SEQ ID NO: 203) (protein)
chain: MILTKDGFGIIRNELFGGKLDQTQVDAINFIVEKATESGLSYPEAAYLLATIYHETGLPSGYRTMQPIKEAGSDNYLRSKKYYPYIGYGYVQLTWKENYGRIGKLIGIDLIKNPEKALEPLIAIQIAIKGMLNGWFTGVGFRRKRPVSKYNKQQYIAARNIINGKDKAELIAKYAIIFERALRSL
modifications: Acinetobacter phage vB_AbaP_CEB1
B2: GN431: lysin obtained from Dickeya phage phiD3 (SEQ ID NO: 64) (protein)
chain: MAILKLGNRGTEVKALQDSLNKIGFTLVADGIFGKATENAVKTVQAGAGLVIDGIVGPKTSYAIRNAGEAHQDHLTEADLIEAANQLGVDLASVKAVNQVESRGTGFTKSGKIKTLFERHIMYKKLMAKFGQARANAMGQMYPTLVSPVAGGYTGGDAELDRLHAAINIDEDCAYESASYGLFQIMGFNCQVCGYANAKEMFNDFLTGERAHLMAFVKFIKADAKLWQALKDKNWAEFARRYNGPAYTKNQYDTKLAAAYNSFN
modifications: Dickeya phage phiD3
B3: GN83: AMP OBPgpLYS fused to the N-terminus of lysin GN4 (SEQ ID NO: 216) (protein)
chain: MKNSEKNASIIMSIQRTLASLSLYGGRIDGLFGEKCRGAIILMLNKVYPNFSTNKLPSNTYEAESVFTFLQTALAGVGLYTITIDGKWGGTSQGAIDALVKSYRQITEAERAGSTLPLGLATVMSTSQRGIDLIKSFEGLRLSAYQDSVGVWTIGYGTTRGVTRYMTITVEQAERMLSNDIQRFEPELDRLAKVPLNQNQWDALMSFVYNLGAANLASSTLLKLLNKGDYQGAADQFPRWVNAGGKRLDGLVKRRAAERALFLEPLS
modifications: OBG_GN4_2 (Lyz+C-term)
B4: GN93: lysin-AMP construct: cationic peptide (SEQ ID NO: 120) and linker N-terminal to GN14 lysin (SEQ ID NO: 62) (protein)
chain: MKFFKFFKFFKAGAGAGAGAGAGAGAGASNNELPWVAEARKYIGLREDTSKTSHNPKLLAMLDRMGEFSNESRAWWHDDETPWCGLFVGYCLGVAGRYVVREWYRARAWEAPQLTKLDRPAYGALVTFTRSGGGHVGFIVGKDARGNLMVLGGNQSNAVSIAPFAVSRVTGYFWPSFWRNKTAVKSVPFEERYSLPLLKSNGELSTNEA
B5: GN357: lysin-AMP construct: TAGGTAGG linker and RR12Whydro C-terminal to GN316 lysin (SEQ ID NO: 38) (protein)
chain: MAILKIGSKGLEVKNLQTSLNKIGFNLVADGIFGKATDNAVRAVQAGAGLVVDGIAGPKTMYAIRNAGESHQDHLTEADLIDAARELSVDLASIKAVNQVESRGTGFTKSGKIKTLFERHIMYKKLNAKFGQAKANALAQLYPTLVNAKAGGYTGGDAELERLHGAIAIDKDCAYESASYGLFQIMGFNCVICGYDNAEEMFNDFLTGERAQLMAFVKFIKADANLWKALKDKNWAEFARRYNGPAYAQNQYDTKLAAAYKSFSTAGGTAGGRRLIRLWLRLLR
B6: GN122: lysin obtained from Pseudomonas putida strain PA14H7 (SEQ ID NO: 218) (protein, listed as Pseudomonas putida)
chain: MSIFSFVKEAGEKLIDLLTPGNANASEQLKEHVSKVGLGNPNIQTTVEGSKVTVTGEVASQEEKEKILLALGNIAGVESVDDQITVTGPLVAAARFVVVKKGDTLSAISLAVYGNANQYNKIFEANKPLLSHPDKIYPGQTLRIPE
B7: GN80: dispersin B-like molecule (SEQ ID NO: 214) (protein, listed as Staphylococcus sciuri)
chain: MENIQKGITVDIARKSYSLETLKTIVKHIHDHNGQYLQLHFSDDENYAIESEYFDRKSFSNPYYLTKTEVKSLIEYSNDLNVMVIPDMDFPSHSKAFLSLIKQNDKSLYQEIISDYSDNTLDFFSNRKAVDVTNRQIDEITELFKQPQFAEQQRIVLGGDEVAGGGAHQNSFIEYMNQIGDYAFQQGYEPQMWNDMVTHEGVKSLNNHYSILYWKQNEDNKSNLTVEDFDKYYFDVYNYNYYSLYFLPSKQFSQDDINEQAEYIGWAYAYNKFYYNKNPYSEVNSQNVKGSALSFWGEHATDMTQEELINQEVPLIKVYFNLKK
B8: GN178: lysin-AMP construct: Esculentin fragment and IGEM linker N-terminal to GN146 lysin (SEQ ID NO: 6) (protein)
chain: MPPIFSKLAGKKIKNLLISGLKGGSGSGSGSGSPRTSQRGIDLIKSFEGLRLSAYQDSVGVWTIGYGTTRGVTRYMTITVEQAERMLSNDIQRFEPELDRLAKVPLNQNQWDALMSFVYNLGAANLASSTLLDLLNKGDYQGAADQFPHWVNAGGKRLDGLVKRRAAERALFLEPLS
B9: GN218: lysin-AMP construct: IGEM linker and RI12 antimicrobial peptide C-terminal to GN37 lysin (SEQ ID NO: 10) (protein)
chain: MTYTLSKRSLDNLKGVHPDLVAVVHRAIQLTPVDFAVIEGLRSVSRQKELVAAGASKTMNSRHLTGHAVDLAAYVNGIRWDWPLYDAIAVAVKAAAKELGVAIVWGGDWTTFKDGPHFELDRSKYGGGSGGGGSGGGSRLKKIGKVLKWI
B10: GN217: GN37 lysin with amino acid substitution R79H (SEQ ID NO: 8) (protein)
chain: MTYTLSKRSLDNLKGVHPDLVAVVHRAIQLTPVDFAVIEGLRSVSRQKELVAAGASKTMNSRHLTGHAVDLAAYVNGIHWDWPLYDAIAVAVKAAAKELGVAIVWGGDWTTFKDGPHFELDRSKYR

Each molecule was assayed on P. aeruginosa strain WC-453 (assay: Time-kill assay in HEPES or CAA with 25% human serum (Tables 7, 8)). Conditions: 10 μg/mL; enumerated lysins in CAA/HuS; general statement for HEPES and CAA/HuS.
Format: cell-based, Pseudomonas aeruginosa
Procedure: Exponential phase bacteria were then pelleted and resuspended in 1/5 culture volume of 25 mM HEPES, pH 7.4 before a final adjustment to an optical density corresponding to a McFarland value of 0.5. […] All treatments were incubated at 37° C. with aeration. At time points before the addition of lysin (or buffer control) and at 1 hour and 3 hours intervals thereafter, culture samples were removed for quantitative plating on CAA agar plates.
Throughout, for CAA/HuS MIC: CAA supplemented with 2.5% human serum.

Molecule	bactericidal activity (CFU decrease of 3-Log10, 3 hours after the addition of lysin)
B1	bactericidal activity
B2	bactericidal activity
B3	bactericidal activity
B4	bactericidal activity
B5	bactericidal activity

Same assay, conditions: 25 mM HEPES pH 7.4; lysin 10 μg/ml; 1 hr; WC-453

Molecule	HEPES (Log10 CFU/mL), 1 hr [Log10 CFU/mL]
B6	7.7
B1	<3.7
B7	7.7
B3	<3.7
B4	6.0

Same assay, conditions: 25 mM HEPES pH 7.4; lysin 10 μg/ml; 3 hr; WC-453

Molecule	HEPES (Log10 CFU/mL), 3 hr [Log10 CFU/mL]
B6	5.4
B1	<3.7
B7	6.7
B3	<3.7
B4	<3.7

Same assay, conditions: CAA + 25% human serum; lysin 10 μg/ml; 1 hr; WC-453

Molecule	CAA/HuS (Log10 CFU/mL), 1 hr [Log10 CFU/mL]
B6	6.7
B1	5.7
B7	6.7
B2	5.8
B3	5.7
B4	6.6
B5	5.0

Same assay, conditions: CAA + 25% human serum; lysin 10 μg/ml; 3 hr; WC-453

Molecule	CAA/HuS (Log10 CFU/mL), 3 hr [Log10 CFU/mL]
B6	6.7
B1	<3.7
B7	7.0
B2	<3.7
B3	<3.7
B4	<3.7
B5	<3.7

These molecules were tested on carbepenam-resistant clinical isolate WC-453 (assay: MIC in CAA without or with 25% human serum (Table 5)). Conditions: not given.
Format: cell-based, Pseudomonas aeruginosa
Set-up: CAA MIC: unit not given here
Procedure: MIC values were determined using a modification of the standard broth microdilution reference method defined by the Clinical and Laboratory Standards Institute (CLSI), CLSI. […] Methods for Dilution Antimicrobial Susceptibility Tests for Bacteria That Grow Aerobically; Approved Standard-10th Edition. Clinical and Laboratory Standards Institute, Wayne, Pa.

Molecule	activity in CAA supplemented with human serum (25%)
B6	active
B8	active
B1	active
B3	repressed
B4	active
B9	active

Same assay, conditions: CAA

Molecule	CAA MIC
B6	2
B8	8
B1	64
B3	>128
B4	128
B9	8

Same assay, conditions: CAA supplemented with 25% human serum

Molecule	CAA/HuS MIC
B6	2
B8	1
B1	8
B3	>128
B4	8
B9	1

Each molecule was assayed on Pseudomonas aeruginosa strain CFS-1292 (meropenem resistant) (assay: not given). Conditions: strain CFS-1292; no added cations.
Procedure: The activity of selected GN lysins and constructs in the presence of divalent cations was evaluated, and the impact of divalent cations at physiological concentrations was examined in the MIC assay format.

Molecule	MIC in 25% CAA [µg/mL]
B2	2
B5	4

The molecules below were run on biofilms formed by P. aeruginosa strain ATCC 17646 (assay: not given). Conditions: strain ATCC 17646 biofilm.
Procedure: Biofilms are then washed and treated with e.g., a 2-fold dilution series of the lysin in TSBg at e.g., 37° C. for 24 hours. After treatment, wells are washed, air-dried at e.g., 37° C. and stained with e.g., 0.05% crystal violet for 10 minutes.

Molecule	MBEC [µg/mL]
B6	1
B1	0.125
B7	0.125
B2	1
B3	1
B10	0.5
B4	0.125
B5	0.5

These molecules were tested on P. aeruginosa (assay: MIC, modified CLSI broth microdilution in CAA medium without or with […] human serum (Table 4)). Conditions: CAA medium, no human serum.
Format: cell-based, Pseudomonas aeruginosa
Source text: 2015. […] Clinical and Laboratory Standards Institute, Wayne, Pa.

Molecule	CAA MIC [µg/mL]
B8	8000
B2	8000
B10	4000
B4	128000
B5	16000
B9	8000

Same assay, conditions: CAA supplemented with […] human serum

Molecule	CAA/HuS MIC [µg/mL]
B8	4000
B2	62.5
B10	125
B4	8000
B5	250
B9	1000

Same assay, conditions: CAA with and without human serum; parent GN316 or GN37

Molecule	effect of the structural modification on activity (as assessed by MIC) versus the parent lysin
B10	improves its potency over GN37 both in the absence and presence of human serum
B9	very strong activity in the presence of human serum
